B1: CE115HA000 Y58A (antibody, human IgG1, kappa, L234A L235A, N297A, name in Kabat numbering)
heavy: QVQLVESGGGVVQPGRSLRLSCAASGFTFSNAWMHWVRQAPGKGLEWVAQIKAKSNNYATAYAESVKGRFTISRDDSKNSLYLQMNSLKTEDTAVYYCRYVHYGAYYGVDAWGQGTTVTVSSASTKGPSVFPLAPSSKSTSGGTAALGCLVKDYFPEPVTVSWNSGALTSGVHTFPAVLQSSGLYSLSSVVTVPSSSLGTQTYICNVNHKPSNTKVDKKVEPKSCDKTHTCPPCPAPEAAGGPSVFLFPPKPKDTLMISRTPEVTCVVVDVSHEDPEVKFNWYVDGVEVHNAKTKPREEQYASTYRVVSVLTVLHQDWLNGKEYKCKVSNKALPAPIEKTISKAKGQPREPQVYTLPPSRCELTKNQVSLSCAVKGFYPSDIAVEWESNGQPENNYKTTPPVLDSDGSFFLVSKLTVDKSRWQQGNVFSCSVMHEALHNHYTQKSLSLSPDYKDDDDK
chain: EPKSSDKTHTCPPCPAPELLGGPSVFLFPPKPKDTLMISRTPEVTCVVVDVSHEDPEVKFNWYVDGVEVHNAKTKPREEQYNSTYRVVSVLTVLHQDWLNGKEYKCKVSNKALPAPIEKTISKAKGQPREPQVCTLPPSRDELTKNQVSLWCLVKGFYPSDIAVEWESNGQPENNYKTTPPVLDSDGSFFLYSKLTVDKSRWQQGNVFSCSVMHEALHNRYTQKSLSLSP
light: DIVMTQSPLSLPVTPGEPASISCRSSQSLVHSNRNTYLHWYQQKPGQAPRLLIYKVSNRFSGVPDRFSGSGSGTDFTLKISRVEAEDVGVYYCGQGTQVPYTFGQGTKLEIKRTVAAPSVFIFPPSDEQLKSGTASVVCLLNNFYPREAKVQWKVDNALQSGNSQESVTEQDSKDSTYSLSSTLTLSKADYEKHKVYACEVTHQGLSSPVTKSFNRGEC
notes: one-arm antibody
B2: CE115HA000 Y58N (antibody, human IgG1, kappa, L234A L235A, N297A, name in Kabat numbering)
heavy: QVQLVESGGGVVQPGRSLRLSCAASGFTFSNAWMHWVRQAPGKGLEWVAQIKAKSNNYATNYAESVKGRFTISRDDSKNSLYLQMNSLKTEDTAVYYCRYVHYGAYYGVDAWGQGTTVTVSSASTKGPSVFPLAPSSKSTSGGTAALGCLVKDYFPEPVTVSWNSGALTSGVHTFPAVLQSSGLYSLSSVVTVPSSSLGTQTYICNVNHKPSNTKVDKKVEPKSCDKTHTCPPCPAPEAAGGPSVFLFPPKPKDTLMISRTPEVTCVVVDVSHEDPEVKFNWYVDGVEVHNAKTKPREEQYASTYRVVSVLTVLHQDWLNGKEYKCKVSNKALPAPIEKTISKAKGQPREPQVYTLPPSRCELTKNQVSLSCAVKGFYPSDIAVEWESNGQPENNYKTTPPVLDSDGSFFLVSKLTVDKSRWQQGNVFSCSVMHEALHNHYTQKSLSLSPDYKDDDDK
chain: EPKSSDKTHTCPPCPAPELLGGPSVFLFPPKPKDTLMISRTPEVTCVVVDVSHEDPEVKFNWYVDGVEVHNAKTKPREEQYNSTYRVVSVLTVLHQDWLNGKEYKCKVSNKALPAPIEKTISKAKGQPREPQVCTLPPSRDELTKNQVSLWCLVKGFYPSDIAVEWESNGQPENNYKTTPPVLDSDGSFFLYSKLTVDKSRWQQGNVFSCSVMHEALHNRYTQKSLSLSP
light: DIVMTQSPLSLPVTPGEPASISCRSSQSLVHSNRNTYLHWYQQKPGQAPRLLIYKVSNRFSGVPDRFSGSGSGTDFTLKISRVEAEDVGVYYCGQGTQVPYTFGQGTKLEIKRTVAAPSVFIFPPSDEQLKSGTASVVCLLNNFYPREAKVQWKVDNALQSGNSQESVTEQDSKDSTYSLSSTLTLSKADYEKHKVYACEVTHQGLSSPVTKSFNRGEC
notes: one-arm antibody
B3: CE115HA000 Y58L (antibody, human IgG1, kappa, L234A L235A, N297A, name in Kabat numbering)
heavy: QVQLVESGGGVVQPGRSLRLSCAASGFTFSNAWMHWVRQAPGKGLEWVAQIKAKSNNYATLYAESVKGRFTISRDDSKNSLYLQMNSLKTEDTAVYYCRYVHYGAYYGVDAWGQGTTVTVSSASTKGPSVFPLAPSSKSTSGGTAALGCLVKDYFPEPVTVSWNSGALTSGVHTFPAVLQSSGLYSLSSVVTVPSSSLGTQTYICNVNHKPSNTKVDKKVEPKSCDKTHTCPPCPAPEAAGGPSVFLFPPKPKDTLMISRTPEVTCVVVDVSHEDPEVKFNWYVDGVEVHNAKTKPREEQYASTYRVVSVLTVLHQDWLNGKEYKCKVSNKALPAPIEKTISKAKGQPREPQVYTLPPSRCELTKNQVSLSCAVKGFYPSDIAVEWESNGQPENNYKTTPPVLDSDGSFFLVSKLTVDKSRWQQGNVFSCSVMHEALHNHYTQKSLSLSPDYKDDDDK
chain: EPKSSDKTHTCPPCPAPELLGGPSVFLFPPKPKDTLMISRTPEVTCVVVDVSHEDPEVKFNWYVDGVEVHNAKTKPREEQYNSTYRVVSVLTVLHQDWLNGKEYKCKVSNKALPAPIEKTISKAKGQPREPQVCTLPPSRDELTKNQVSLWCLVKGFYPSDIAVEWESNGQPENNYKTTPPVLDSDGSFFLYSKLTVDKSRWQQGNVFSCSVMHEALHNRYTQKSLSLSP
light: DIVMTQSPLSLPVTPGEPASISCRSSQSLVHSNRNTYLHWYQQKPGQAPRLLIYKVSNRFSGVPDRFSGSGSGTDFTLKISRVEAEDVGVYYCGQGTQVPYTFGQGTKLEIKRTVAAPSVFIFPPSDEQLKSGTASVVCLLNNFYPREAKVQWKVDNALQSGNSQESVTEQDSKDSTYSLSSTLTLSKADYEKHKVYACEVTHQGLSSPVTKSFNRGEC
notes: one-arm antibody
B4: CE115HA000 Y58D (antibody, human IgG1, kappa, L234A L235A, N297A, name in Kabat numbering)
heavy: QVQLVESGGGVVQPGRSLRLSCAASGFTFSNAWMHWVRQAPGKGLEWVAQIKAKSNNYATDYAESVKGRFTISRDDSKNSLYLQMNSLKTEDTAVYYCRYVHYGAYYGVDAWGQGTTVTVSSASTKGPSVFPLAPSSKSTSGGTAALGCLVKDYFPEPVTVSWNSGALTSGVHTFPAVLQSSGLYSLSSVVTVPSSSLGTQTYICNVNHKPSNTKVDKKVEPKSCDKTHTCPPCPAPEAAGGPSVFLFPPKPKDTLMISRTPEVTCVVVDVSHEDPEVKFNWYVDGVEVHNAKTKPREEQYASTYRVVSVLTVLHQDWLNGKEYKCKVSNKALPAPIEKTISKAKGQPREPQVYTLPPSRCELTKNQVSLSCAVKGFYPSDIAVEWESNGQPENNYKTTPPVLDSDGSFFLVSKLTVDKSRWQQGNVFSCSVMHEALHNHYTQKSLSLSPDYKDDDDK
chain: EPKSSDKTHTCPPCPAPELLGGPSVFLFPPKPKDTLMISRTPEVTCVVVDVSHEDPEVKFNWYVDGVEVHNAKTKPREEQYNSTYRVVSVLTVLHQDWLNGKEYKCKVSNKALPAPIEKTISKAKGQPREPQVCTLPPSRDELTKNQVSLWCLVKGFYPSDIAVEWESNGQPENNYKTTPPVLDSDGSFFLYSKLTVDKSRWQQGNVFSCSVMHEALHNRYTQKSLSLSP
light: DIVMTQSPLSLPVTPGEPASISCRSSQSLVHSNRNTYLHWYQQKPGQAPRLLIYKVSNRFSGVPDRFSGSGSGTDFTLKISRVEAEDVGVYYCGQGTQVPYTFGQGTKLEIKRTVAAPSVFIFPPSDEQLKSGTASVVCLLNNFYPREAKVQWKVDNALQSGNSQESVTEQDSKDSTYSLSSTLTLSKADYEKHKVYACEVTHQGLSSPVTKSFNRGEC
notes: one-arm antibody
B5: CE115HA000 Y58K (antibody, human IgG1, kappa, L234A L235A, N297A, name in Kabat numbering)
heavy: QVQLVESGGGVVQPGRSLRLSCAASGFTFSNAWMHWVRQAPGKGLEWVAQIKAKSNNYATKYAESVKGRFTISRDDSKNSLYLQMNSLKTEDTAVYYCRYVHYGAYYGVDAWGQGTTVTVSSASTKGPSVFPLAPSSKSTSGGTAALGCLVKDYFPEPVTVSWNSGALTSGVHTFPAVLQSSGLYSLSSVVTVPSSSLGTQTYICNVNHKPSNTKVDKKVEPKSCDKTHTCPPCPAPEAAGGPSVFLFPPKPKDTLMISRTPEVTCVVVDVSHEDPEVKFNWYVDGVEVHNAKTKPREEQYASTYRVVSVLTVLHQDWLNGKEYKCKVSNKALPAPIEKTISKAKGQPREPQVYTLPPSRCELTKNQVSLSCAVKGFYPSDIAVEWESNGQPENNYKTTPPVLDSDGSFFLVSKLTVDKSRWQQGNVFSCSVMHEALHNHYTQKSLSLSPDYKDDDDK
chain: EPKSSDKTHTCPPCPAPELLGGPSVFLFPPKPKDTLMISRTPEVTCVVVDVSHEDPEVKFNWYVDGVEVHNAKTKPREEQYNSTYRVVSVLTVLHQDWLNGKEYKCKVSNKALPAPIEKTISKAKGQPREPQVCTLPPSRDELTKNQVSLWCLVKGFYPSDIAVEWESNGQPENNYKTTPPVLDSDGSFFLYSKLTVDKSRWQQGNVFSCSVMHEALHNRYTQKSLSLSP
light: DIVMTQSPLSLPVTPGEPASISCRSSQSLVHSNRNTYLHWYQQKPGQAPRLLIYKVSNRFSGVPDRFSGSGSGTDFTLKISRVEAEDVGVYYCGQGTQVPYTFGQGTKLEIKRTVAAPSVFIFPPSDEQLKSGTASVVCLLNNFYPREAKVQWKVDNALQSGNSQESVTEQDSKDSTYSLSSTLTLSKADYEKHKVYACEVTHQGLSSPVTKSFNRGEC
notes: one-arm antibody
B6: CE115HA000 Y58Q (antibody, human IgG1, kappa, L234A L235A, N297A, name in Kabat numbering)
heavy: QVQLVESGGGVVQPGRSLRLSCAASGFTFSNAWMHWVRQAPGKGLEWVAQIKAKSNNYATQYAESVKGRFTISRDDSKNSLYLQMNSLKTEDTAVYYCRYVHYGAYYGVDAWGQGTTVTVSSASTKGPSVFPLAPSSKSTSGGTAALGCLVKDYFPEPVTVSWNSGALTSGVHTFPAVLQSSGLYSLSSVVTVPSSSLGTQTYICNVNHKPSNTKVDKKVEPKSCDKTHTCPPCPAPEAAGGPSVFLFPPKPKDTLMISRTPEVTCVVVDVSHEDPEVKFNWYVDGVEVHNAKTKPREEQYASTYRVVSVLTVLHQDWLNGKEYKCKVSNKALPAPIEKTISKAKGQPREPQVYTLPPSRCELTKNQVSLSCAVKGFYPSDIAVEWESNGQPENNYKTTPPVLDSDGSFFLVSKLTVDKSRWQQGNVFSCSVMHEALHNHYTQKSLSLSPDYKDDDDK
chain: EPKSSDKTHTCPPCPAPELLGGPSVFLFPPKPKDTLMISRTPEVTCVVVDVSHEDPEVKFNWYVDGVEVHNAKTKPREEQYNSTYRVVSVLTVLHQDWLNGKEYKCKVSNKALPAPIEKTISKAKGQPREPQVCTLPPSRDELTKNQVSLWCLVKGFYPSDIAVEWESNGQPENNYKTTPPVLDSDGSFFLYSKLTVDKSRWQQGNVFSCSVMHEALHNRYTQKSLSLSP
light: DIVMTQSPLSLPVTPGEPASISCRSSQSLVHSNRNTYLHWYQQKPGQAPRLLIYKVSNRFSGVPDRFSGSGSGTDFTLKISRVEAEDVGVYYCGQGTQVPYTFGQGTKLEIKRTVAAPSVFIFPPSDEQLKSGTASVVCLLNNFYPREAKVQWKVDNALQSGNSQESVTEQDSKDSTYSLSSTLTLSKADYEKHKVYACEVTHQGLSSPVTKSFNRGEC
notes: one-arm antibody
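Also: surface plasmon resonance at 25 °C with CD3 epsilon homodimer amine-coupled to a CM4 sensor chip, antibody injected as analyte, HBS-EP+ as running buffer.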

The target in this test is T1, CD3 epsilon homodimer protein (UniProt P07766 23-126).
T1 construct: also called CD3 (CD3 epsilon)
T1 sequence (P07766 23-126): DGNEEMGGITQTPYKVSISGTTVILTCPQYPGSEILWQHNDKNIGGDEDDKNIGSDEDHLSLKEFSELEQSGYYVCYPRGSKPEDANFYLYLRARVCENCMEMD
The test is described as follows: SPR, CD3 epsilon homodimer on chip, one-arm antibody as analyte. (In general: SPR reads the build-up and loss of mass on a sensor chip optically.)
For B1, the “KD ratio (KD of CE115HA000/KD of altered form)” value (“KD ratio” for short) amounted to 1.06.
As to B2, the “KD ratio” value worked out at 1.86.
As for B3, the “KD ratio” value came to 1.21.
Take B4: the “KD ratio” value worked out at 4.81.
For B5 the value was 0.66; for B6, 1.24.

The values above are taken from patent publication US20210388087A1 (Chugai, published 2021).
